Source: patent publication US20050054835A1 (XOMA TECHNOLOGY, published 2005)

Target: T1, human CD5 cell differentiation marker (human, UniProt P06127 25-495)
T1 sequence: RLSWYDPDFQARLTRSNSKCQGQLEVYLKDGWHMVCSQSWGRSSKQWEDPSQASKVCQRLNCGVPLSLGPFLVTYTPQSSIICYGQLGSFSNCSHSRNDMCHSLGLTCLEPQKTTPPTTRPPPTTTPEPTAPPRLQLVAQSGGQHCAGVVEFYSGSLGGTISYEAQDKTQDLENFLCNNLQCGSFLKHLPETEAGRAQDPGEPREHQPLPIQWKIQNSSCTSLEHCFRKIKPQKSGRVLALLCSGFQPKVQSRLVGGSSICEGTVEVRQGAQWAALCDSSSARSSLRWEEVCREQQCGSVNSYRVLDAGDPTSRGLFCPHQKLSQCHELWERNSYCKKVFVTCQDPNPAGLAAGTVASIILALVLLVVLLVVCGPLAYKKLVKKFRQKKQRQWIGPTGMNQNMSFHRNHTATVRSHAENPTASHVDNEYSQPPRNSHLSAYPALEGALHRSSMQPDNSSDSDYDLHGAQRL
Experiment: cell-based or functional assay

B1: he3Fab-rGelA50(C44) (other, not shown: a dimerising Fc or GST)
heavy: EIQLVQSGGGLVKPGGSVRISCAASGYTFTNYGMNWVRQAPGKGLEWMGWINTHTGEPTYADSFKGRFTFSLDDSKNTAYLQINSLRAEDTAVYFCTRRGYDWYFDVWGQGTTVTVSS
light: DIQMTQSPSSLSASVGDRVTITCRASQDINSYLSWFQQKPGKAPKTLIYRANRLESGVPSRFSGSGSGTDYTLTISSLQYEDFGIYYCQQYDESPWTFGGGTKLEIK
chain: GLDTVSFSTKGATYITYVNFLNELRVKLKPEGNSHGIPLLRKKCDDPGKAFVLVALSNDNGQLAEIAIDVTSVYVVGYQVRNRSYFFKDAPDAAYEGLFKNTIKTRLHFGGSYPSLEGEKAYRETTDLGIEPLRIGIKKLDENAIDNYKPTEIASSLLVVIQMVSEAARFTFIENQIRNNFQQRIRPANNTISLENKWGKLSFQIRTSGANGMFSEAVELERANGKKYYVTAVDQVKPKIALLKFVDKDPK
modifications: Cys 44 disulfide-linked through an M2IT linker to the Fab
With B1 the “IC50, whole cell cytotoxicity (inhibition of protein synthesis), CEM cells” value was 173 pM T and the “IC50, whole cell cytotoxicity (inhibition of protein synthesis), HSB2 cells” value was 165 pM T.
